Assays:
[1] = molecular target: E. coli RNA polymerase β′ subunit (E. coli, UniProt P0A8T7 1-1407); assay: cryo-EM structure
[2] = molecular target: sigma70 (RpoD);RNAP core enzyme wild type (alpha2 beta beta' omega) (Escherichia coli;Escherichia coli, UniProt P00579;P0A7Z4;P0A8V2;P0A8T7;P0A800 1-613;1-329;1-1342;1-1407;1-91, |); assay: DNase I footprinting
Chain of sigma70 (RpoD);RNAP core enzyme wild type (alpha2 beta beta' omega) (P00579 whole entry, chain 1 of 4): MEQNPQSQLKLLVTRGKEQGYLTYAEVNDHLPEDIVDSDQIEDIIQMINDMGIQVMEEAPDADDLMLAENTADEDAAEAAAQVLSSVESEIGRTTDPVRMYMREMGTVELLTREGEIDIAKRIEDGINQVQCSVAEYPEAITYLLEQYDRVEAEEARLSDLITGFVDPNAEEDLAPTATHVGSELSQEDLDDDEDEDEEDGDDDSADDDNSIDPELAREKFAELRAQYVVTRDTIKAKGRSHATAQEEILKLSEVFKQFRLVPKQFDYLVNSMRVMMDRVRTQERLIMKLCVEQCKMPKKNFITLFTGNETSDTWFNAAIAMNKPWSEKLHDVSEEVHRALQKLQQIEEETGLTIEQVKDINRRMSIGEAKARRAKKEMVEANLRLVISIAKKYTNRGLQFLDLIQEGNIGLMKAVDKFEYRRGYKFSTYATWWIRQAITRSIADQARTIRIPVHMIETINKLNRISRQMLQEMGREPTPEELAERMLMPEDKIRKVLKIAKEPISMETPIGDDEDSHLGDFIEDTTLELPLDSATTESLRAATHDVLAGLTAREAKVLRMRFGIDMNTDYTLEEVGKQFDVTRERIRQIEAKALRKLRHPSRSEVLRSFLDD
Chain of sigma70 (RpoD);RNAP core enzyme wild type (alpha2 beta beta' omega) (P0A7Z4 whole entry, chain 2 of 4): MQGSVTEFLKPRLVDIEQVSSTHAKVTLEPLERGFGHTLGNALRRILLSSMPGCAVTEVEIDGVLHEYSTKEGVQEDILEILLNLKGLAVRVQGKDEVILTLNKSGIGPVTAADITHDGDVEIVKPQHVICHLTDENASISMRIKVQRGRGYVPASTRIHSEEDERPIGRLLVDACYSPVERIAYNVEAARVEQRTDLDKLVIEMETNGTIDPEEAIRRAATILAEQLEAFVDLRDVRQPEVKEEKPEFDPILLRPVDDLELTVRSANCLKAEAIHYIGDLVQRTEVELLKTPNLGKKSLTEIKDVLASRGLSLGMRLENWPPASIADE
Chain of sigma70 (RpoD);RNAP core enzyme wild type (alpha2 beta beta' omega) (P0A8V2 whole entry, chain 3 of 4): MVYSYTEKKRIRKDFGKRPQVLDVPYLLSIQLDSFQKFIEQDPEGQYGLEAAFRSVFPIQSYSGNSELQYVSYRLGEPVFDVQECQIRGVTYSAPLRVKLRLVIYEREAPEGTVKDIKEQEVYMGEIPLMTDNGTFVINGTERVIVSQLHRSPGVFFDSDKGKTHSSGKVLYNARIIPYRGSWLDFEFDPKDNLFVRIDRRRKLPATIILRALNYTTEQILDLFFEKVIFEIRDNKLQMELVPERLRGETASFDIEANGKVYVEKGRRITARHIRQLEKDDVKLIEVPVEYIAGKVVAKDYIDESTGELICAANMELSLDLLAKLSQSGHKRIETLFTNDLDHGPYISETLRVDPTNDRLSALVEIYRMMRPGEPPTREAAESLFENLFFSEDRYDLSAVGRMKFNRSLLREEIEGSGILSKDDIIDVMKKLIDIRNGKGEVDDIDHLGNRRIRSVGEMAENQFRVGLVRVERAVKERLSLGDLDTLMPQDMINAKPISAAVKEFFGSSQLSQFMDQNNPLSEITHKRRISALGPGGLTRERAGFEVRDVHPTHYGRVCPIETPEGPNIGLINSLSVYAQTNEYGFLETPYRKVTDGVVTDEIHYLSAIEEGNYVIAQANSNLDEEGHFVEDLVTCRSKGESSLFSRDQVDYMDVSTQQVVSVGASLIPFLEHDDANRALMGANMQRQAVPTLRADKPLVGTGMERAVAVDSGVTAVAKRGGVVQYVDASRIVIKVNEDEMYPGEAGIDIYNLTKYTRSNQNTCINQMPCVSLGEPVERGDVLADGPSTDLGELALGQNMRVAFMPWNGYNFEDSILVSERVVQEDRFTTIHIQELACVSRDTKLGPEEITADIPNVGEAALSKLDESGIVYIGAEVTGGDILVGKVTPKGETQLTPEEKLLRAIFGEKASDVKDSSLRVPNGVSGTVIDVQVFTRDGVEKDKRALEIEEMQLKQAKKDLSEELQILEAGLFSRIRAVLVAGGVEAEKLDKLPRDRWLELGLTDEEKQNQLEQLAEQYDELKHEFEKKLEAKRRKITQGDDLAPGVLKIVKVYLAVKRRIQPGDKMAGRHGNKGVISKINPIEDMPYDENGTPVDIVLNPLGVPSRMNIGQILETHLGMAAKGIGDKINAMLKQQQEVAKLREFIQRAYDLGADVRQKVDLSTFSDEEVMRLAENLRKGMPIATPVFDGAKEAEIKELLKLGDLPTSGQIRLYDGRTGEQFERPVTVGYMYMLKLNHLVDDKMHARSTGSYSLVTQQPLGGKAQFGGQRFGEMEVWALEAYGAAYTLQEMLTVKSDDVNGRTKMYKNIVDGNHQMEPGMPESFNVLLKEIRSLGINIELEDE
Chain of sigma70 (RpoD);RNAP core enzyme wild type (alpha2 beta beta' omega) (P0A800 whole entry, chain 5 of 4): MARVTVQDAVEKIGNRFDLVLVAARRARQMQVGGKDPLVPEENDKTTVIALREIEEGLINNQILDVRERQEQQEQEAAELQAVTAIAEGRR

Chain of E. coli RNA polymerase β′ subunit (P0A8T7 whole entry): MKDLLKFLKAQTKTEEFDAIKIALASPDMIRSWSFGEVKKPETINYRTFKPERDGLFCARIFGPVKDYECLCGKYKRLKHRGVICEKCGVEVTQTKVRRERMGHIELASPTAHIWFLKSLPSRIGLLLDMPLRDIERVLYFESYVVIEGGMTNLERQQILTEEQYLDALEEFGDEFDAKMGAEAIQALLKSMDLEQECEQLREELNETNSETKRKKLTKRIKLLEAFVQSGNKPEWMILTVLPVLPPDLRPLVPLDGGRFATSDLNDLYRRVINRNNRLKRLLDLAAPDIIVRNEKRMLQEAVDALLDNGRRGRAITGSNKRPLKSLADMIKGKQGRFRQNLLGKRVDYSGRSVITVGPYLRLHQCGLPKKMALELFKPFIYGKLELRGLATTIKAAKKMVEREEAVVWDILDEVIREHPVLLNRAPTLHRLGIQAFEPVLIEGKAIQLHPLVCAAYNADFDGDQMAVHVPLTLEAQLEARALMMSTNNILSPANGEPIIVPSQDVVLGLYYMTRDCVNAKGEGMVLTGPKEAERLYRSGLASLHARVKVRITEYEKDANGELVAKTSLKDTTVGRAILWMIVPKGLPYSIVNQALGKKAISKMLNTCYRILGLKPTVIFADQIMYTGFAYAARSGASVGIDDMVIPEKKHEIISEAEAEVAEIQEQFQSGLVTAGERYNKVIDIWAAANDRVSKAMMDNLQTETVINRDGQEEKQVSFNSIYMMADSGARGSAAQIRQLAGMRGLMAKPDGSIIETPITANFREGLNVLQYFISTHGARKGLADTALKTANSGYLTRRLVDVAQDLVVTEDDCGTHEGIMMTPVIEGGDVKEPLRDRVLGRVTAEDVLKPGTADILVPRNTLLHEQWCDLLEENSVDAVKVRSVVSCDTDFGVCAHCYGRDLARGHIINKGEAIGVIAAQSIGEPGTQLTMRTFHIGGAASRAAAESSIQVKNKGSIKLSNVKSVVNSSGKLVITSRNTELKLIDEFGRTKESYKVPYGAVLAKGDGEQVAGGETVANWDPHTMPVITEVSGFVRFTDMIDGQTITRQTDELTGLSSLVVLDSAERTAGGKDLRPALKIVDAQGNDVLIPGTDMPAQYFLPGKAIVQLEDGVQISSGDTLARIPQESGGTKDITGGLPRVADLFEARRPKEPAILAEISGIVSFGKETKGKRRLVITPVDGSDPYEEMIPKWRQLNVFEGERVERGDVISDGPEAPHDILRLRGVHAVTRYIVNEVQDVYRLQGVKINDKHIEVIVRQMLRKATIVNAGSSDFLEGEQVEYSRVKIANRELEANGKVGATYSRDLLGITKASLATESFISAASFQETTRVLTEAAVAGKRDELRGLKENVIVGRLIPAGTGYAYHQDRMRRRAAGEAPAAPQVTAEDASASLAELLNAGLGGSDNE

B1: E. coli σ^28 factor (natural protein, UniProt P0AEM6 1-239, looked up)
chain: MNSLYTAEGVMDKHSLWQRYVPLVRHEALRLQVRLPASVELDDLLQAGGIGLLNAVERYDALQGTAFTTYAVQRIRGAMLDELRSRDWVPRSVRRNAREVAQAIGQLEQELGRNATETEVAERLGIDIADYRQMLLDTNNSQLFSYDEWREEHGDSIELVTDDHQRENPLQQLLDSNLRQRVMEAIETLPEREKLVLTLYYQEELNLKEIGAVLEVGESRVSQLHSQAIKRLRTKLGKL
- binding result [1]: binds

B2: lacUV5p (dsDNA)
DNA 1: CCCGCCGACAGGTTTCCCGACTGGAAAGCGGGCAGTGAGCGCAACGCAATTAATGTGAGTTAGCTCACTCATTAGGCACCCCAGGCTTTACACTTTATGCTTCCGGCTCGTATAATGTGTGGAATTGTGAGCGGATAACAATTTCACACAGGAAACAGCTATGACCATGGGCGCGG
DNA 2: CCGCGCCCATGGTCATAGCTGTTTCCTGTGTGAAATTGTTATCCGCTCACAATTCCACACATTATACGAGCCGGAAGCATAAAGTGTAAAGCCTGGGGTGCCTAATGAGTGAGCTAACTCACATTAATTGCGTTGCGCTCACTGCCCGCTTTCCAGTCGGGAAACCTGTCGGCGGG
- binding result [2]: binds

From publication doi:10.1101/2020.01.02.893370 (bioRxiv, 2020)
